Laboratory results: patent US20120258090

How the values were obtained:
[1] = molecular target: fully carboxylated recombinant human prothrombin, P00734
[2] = molecular target: incompletely carboxylated recombinant human prothrombin, P00734

B1: recombinant ecarin (activated, in CHO-S culture supernatant) (protein)
chain: VPPHERKFEKKFIELVVVVDHSMVTKYNNDSTAIRTWIYEMLNTVNEIYLPFNIRVALVGLEFWCNGDLINVTSTADDTLHSFGEWRASDLLNRKRHDHAQLLTNVTLDHSTLGITFVYGMCKSDRSVELILDYSNITFNMAYIIAHEMGHSLGMLHDTKFCTCGAKPCIMFGKESIPPPKEFSSCSYDQYNKYLLKYNPKCILDPPLRKDIASPAVCGNEIWEEGEECDCGSPADCRNPCCDAATCKLKPGAECGNGECCDKCKIRKAGTECRPARDDCDVAEHCTGQSAECPRNEFQRNGQPCLNNSGYCYNGDCPIMLNQCIALFSPSATVAQDSCFQRNLQGSYYGYCTKEIGYYGKRFPCAPQDVKCGRLYCLDNSFKKNMRCKNDYSYADENKGIVEPGTKCEDGKVCINRKCVDVNTAY
[1]
  activation of prothrombin: the recombinant ecarin is able to efficiently activate both the fully carboxylated and the incompletely carboxylated prothrombins
[2]
  activation of prothrombin: the recombinant ecarin is able to efficiently activate both the fully carboxylated and the incompletely carboxylated prothrombins
